{"source": "patent US20240398920A1", "about": "(CYTOMX THERAPEUTICS, published 2024)", "experiment_in_all_cases": "cell-based or functional assay", "key": {"[1]": {"biological_target": "T1, human herpes virus entry mediator (HVEM) (human, UniProt Q92956 39-283)", "T1 sequence (looked up)": "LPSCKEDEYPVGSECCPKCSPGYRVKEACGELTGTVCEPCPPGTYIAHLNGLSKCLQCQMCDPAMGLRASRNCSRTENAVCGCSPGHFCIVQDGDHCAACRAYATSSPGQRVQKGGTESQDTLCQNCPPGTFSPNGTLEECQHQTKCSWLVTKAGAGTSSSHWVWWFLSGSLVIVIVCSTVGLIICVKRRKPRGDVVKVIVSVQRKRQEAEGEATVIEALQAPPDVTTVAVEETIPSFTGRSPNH"}, "[2]": {"biological_target": "T1, human herpes virus entry mediator (HVEM)", "remark": "listed apart in the source"}, "[3]": {"biological_target": "T1, human herpes virus entry mediator (HVEM)", "remark": "listed apart in the source"}, "[4]": {"biological_target": "T1, human herpes virus entry mediator (HVEM)", "remark": "listed apart in the source"}, "[5]": {"biological_target": "T2, human lymphotoxin beta receptor (LTbR) (human, UniProt P36941 31-435)", "T2 sequence (P36941 31-435)": "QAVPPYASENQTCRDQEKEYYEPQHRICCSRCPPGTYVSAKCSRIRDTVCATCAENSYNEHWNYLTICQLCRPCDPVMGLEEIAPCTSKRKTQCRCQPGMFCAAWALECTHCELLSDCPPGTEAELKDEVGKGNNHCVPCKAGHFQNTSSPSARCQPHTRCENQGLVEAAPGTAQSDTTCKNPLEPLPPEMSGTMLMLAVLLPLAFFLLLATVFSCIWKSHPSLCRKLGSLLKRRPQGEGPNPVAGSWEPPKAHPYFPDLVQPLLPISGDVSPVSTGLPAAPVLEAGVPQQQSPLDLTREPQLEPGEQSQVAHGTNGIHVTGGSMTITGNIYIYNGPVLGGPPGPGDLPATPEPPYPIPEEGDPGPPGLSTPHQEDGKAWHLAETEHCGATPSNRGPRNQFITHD"}, "[6]": {"biological_target": "T1, human herpes virus entry mediator (HVEM)", "remark": "listed apart in the source"}, "[7]": {"biological_target": "T2, human lymphotoxin beta receptor (LTbR)", "remark": "listed apart in the source"}, "[8]": {"biological_target": "T1, human herpes virus entry mediator (HVEM)", "remark": "listed apart in the source"}, "[9]": {"biological_target": "T2, human lymphotoxin beta receptor (LTbR)", "remark": "listed apart in the source"}}, "note": "Where two headings read alike, the source gives them in different places.", "data": [{"binder": "ProC_LIGHT-10GS-His (ProC1189) (ligand) QERRSHEVNPAAHLTGANSSLTGSGGPLLWETQLGLAFLRGLSYHDGALVVTKAGYYYIYSKVQLGGVGCPLGLASTITHGLYKRTPRYPEELELLVSQQSPCGRATSSSRVWWDSSFLGGVVHLEAGEEVVVRVLDERLVRLRDGTRSYFGAFMVSGGGSGGGSGHHHHHH", "values": [{"measurement": "EC50 [nM]: HVEM Reporter Assay", "setting": "[1]", "result": 0.58, "unit": "nM"}, {"measurement": "EC50 [nM]: HVEM Reporter Assay", "setting": "[2]", "result": 0.86, "unit": "nM"}]}, {"binder": "ProC_mLm16_1490_LIGHT-10GS-Strep (ProC1192) (other) QGQSGSRHPCRHDPHIICYKFGGGSSGGSISSGLLSGRSDNIGGSQERRSHEVNPAAHLTGANSSLTGSGGPLLWETQLGLAFLRGLSYHDGALVVTKAGYYYIYSKVQLGGVGCPLGLASTITHGLYKRTPRYPEELELLVSQQSPCGRATSSSRVWWDSSFLGGVVHLEAGEEVVVRVLDERLVRLRDGTRSYFGAFMVSGGGSGGGSGSAWSHPQFEK", "values": [{"measurement": "masking efficiency, HVEM Reporter Assay (EC50 against control ProC1188 or protease-activated ProC1192)", "setting": "[3]", "result": "> 20", "unit": "fold"}, {"measurement": "EC50 [nM]: HVEM Reporter Assay", "setting": "[4]", "result": 25.6, "unit": "nM"}, {"measurement": "EC50 [pM]: Lymphotoxin beta receptor Reporter Assay", "setting": "[5]", "result": 31.3, "unit": "pM"}]}, {"binder": "ProC1192 + uPa (ligand, not shown: small tags and cut ends) GGSQERRSHEVNPAAHLTGANSSLTGSGGPLLWETQLGLAFLRGLSYHDGALVVTKAGYYYIYSKVQLGGVGCPLGLASTITHGLYKRTPRYPEELELLVSQQSPCGRATSSSRVWWDSSFLGGVVHLEAGEEVVVRVLDERLVRLRDGTRSYFGAFMVSGGGSGGGSGSAWSHPQFEK", "values": [{"measurement": "EC50 [nM]: HVEM Reporter Assay", "setting": "[6]", "result": 0.999, "unit": "nM"}, {"measurement": "EC50 [pM]: Lymphotoxin beta receptor Reporter Assay", "setting": "[7]", "result": 2, "unit": "pM"}]}, {"binder": "LIGHT-10GS-Strep (ProC1188) (ligand) QERRSHEVNPAAHLTGANSSLTGSGGPLLWETQLGLAFLRGLSYHDGALVVTKAGYYYIYSKVQLGGVGCPLGLASTITHGLYKRTPRYPEELELLVSQQSPCGRATSSSRVWWDSSFLGGVVHLEAGEEVVVRVLDERLVRLRDGTRSYFGAFMVSGGGSGGGSGSAWSHPQFEK", "values": [{"measurement": "EC50 [nM]: HVEM Reporter Assay", "setting": "[8]", "result": 0.843, "unit": "nM"}, {"measurement": "EC50 [nM]: HVEM Reporter Assay", "setting": "[4]", "result": 1, "unit": "nM"}, {"measurement": "EC50 [pM]: Lymphotoxin beta receptor Reporter Assay", "setting": "[9]", "result": 5.3, "unit": "pM"}, {"measurement": "EC50 [pM]: Lymphotoxin beta receptor Reporter Assay", "setting": "[5]", "result": 5.3, "unit": "pM"}]}]}
